According to paper PMC7263589, “Integration of phage and yeast display platforms: A reliable and cost effective approach for binning of peptides as displayed on-phage” (PLoS ONE, 2020):
Where a chain is given by its changes, count along the chain named. Names and notes keep the numbering of the source. Ends that are not written are not given here.

Columns and labels:
IL-23-HIS = biological target: T1, IL-23-HIS (human, UniProt Q9NPF7 20-189; P29460 23-328); assay: SPR; competition SPR, 25°C; IL-23R-Fc-AVI (<1000 RU) captured on Protein-A; 20 nM IL-23 mixed with one concentration of peptide or cold IL-23R injected 30 s; 10 mM HEPES pH 7.5, 150 mM NaCl, 0.005% P20, 1% BSA; n = 1; settings: both partners purified
T1 construct: IL-23 p19 subunit, human; IL-12/IL-23 p40 subunit, human; also called IL-23 only; IL-23 protein
T1 sequence (looked up) 1: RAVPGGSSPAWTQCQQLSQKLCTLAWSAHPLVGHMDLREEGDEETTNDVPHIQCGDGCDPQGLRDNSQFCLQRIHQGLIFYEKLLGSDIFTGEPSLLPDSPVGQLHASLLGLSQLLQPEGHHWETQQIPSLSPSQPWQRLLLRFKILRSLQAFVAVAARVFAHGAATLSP
T1 sequence (looked up) 2: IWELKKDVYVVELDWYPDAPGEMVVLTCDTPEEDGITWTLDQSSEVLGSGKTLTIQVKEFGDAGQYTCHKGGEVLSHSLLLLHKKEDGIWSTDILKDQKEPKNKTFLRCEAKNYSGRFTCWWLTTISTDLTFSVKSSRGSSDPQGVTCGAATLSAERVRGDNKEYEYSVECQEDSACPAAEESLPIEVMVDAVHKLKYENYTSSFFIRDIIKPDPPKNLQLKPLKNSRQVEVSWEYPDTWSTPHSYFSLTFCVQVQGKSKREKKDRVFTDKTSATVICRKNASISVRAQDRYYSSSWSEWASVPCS

IL-23-AVI [1] = biological target: T2, IL-23-AVI (human, UniProt Q9NPF7 20-189; P29460 23-328); assay: AlphaScreen or HTRF; TR-FRET; compounds pre-incubated with IL-23R-FLAG 1 h, then IL-23-AVI; Europium-streptavidin and anti-FLAG-allophycocyanin; 25 mM HEPES, 150 mM NaCl, 0.02% Tween 20, 0.1% BSA, pH 7.4, 1% DMSO; n = 1; settings: both partners purified
T2 construct: IL-23 p19 subunit, human; IL-12/IL-23 p40 subunit, human; Captured on streptavidin chips and beads, so biotinylation of the Avi tag is implied; also called Avi-tagged IL-23; recombinant IL-23
T2 sequence (looked up) 1: T1 sequence (looked up) 1
T2 sequence (looked up) 2: T1 sequence (looked up) 2

IL-23-AVI [2] = biological target: T2, IL-23-AVI; assay: AlphaScreen or HTRF; AlphaLISA; IL-23-AVI (1.5 nM) pre-incubated with peptide 30 min, then FLAG-tagged IL-23R (3 nM); streptavidin donor and anti-FLAG acceptor beads; 25 mM HEPES pH 7.4, 150 mM NaCl, 0.02% Tween 20, 0.1% BSA; room temperature; n = 1; settings: both partners purified
IL-23-AVI [3] = biological target: T2, IL-23-AVI; assay: SPR; Biacore T200, 25°C, 50 μl/min; 2000–9000 RU of IL-23-AVI captured to streptavidin chip, peptides as analyte (3-fold series, up to 30 μM); 10 mM HEPES pH 7.5, 150 mM NaCl, 0.005% P20, 3% DMSO; multi-cycle, single cycle kinetics for 23–652; 1:1 model; n = 1; settings: both partners purified
[4] = biological target: T3, Fluorescently labeled IL-23R, Q5VWK5; assay: flow cytometry on yeast-displayed IL-23; settings: chain shown with the change; n = 1; parent: est. 1.05; read off a plot
T3 chain: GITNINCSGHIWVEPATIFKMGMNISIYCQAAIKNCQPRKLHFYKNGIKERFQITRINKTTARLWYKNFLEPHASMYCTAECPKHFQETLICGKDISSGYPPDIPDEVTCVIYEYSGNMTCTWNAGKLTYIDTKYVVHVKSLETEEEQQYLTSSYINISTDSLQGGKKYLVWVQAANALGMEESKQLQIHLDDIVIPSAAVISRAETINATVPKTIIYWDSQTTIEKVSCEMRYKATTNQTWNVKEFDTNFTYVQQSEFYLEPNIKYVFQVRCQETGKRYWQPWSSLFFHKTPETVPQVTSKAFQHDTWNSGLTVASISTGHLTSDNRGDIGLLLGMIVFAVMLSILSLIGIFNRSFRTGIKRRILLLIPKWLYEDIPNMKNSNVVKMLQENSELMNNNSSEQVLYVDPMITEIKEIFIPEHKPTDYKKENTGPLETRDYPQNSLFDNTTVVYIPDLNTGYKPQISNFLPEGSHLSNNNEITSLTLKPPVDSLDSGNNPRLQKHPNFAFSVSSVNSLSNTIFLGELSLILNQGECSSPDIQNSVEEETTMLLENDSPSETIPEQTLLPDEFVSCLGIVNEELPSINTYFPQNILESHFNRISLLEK

IL-23-AVI [5] = biological target: T2, IL-23-AVI; assay: SPR; Biacore T200, 25°C; 200–1000 RU of IL-23-AVI captured to streptavidin chip, IL-23R-FLAG-HIS as analyte, single cycle kinetics; 1:1 model; settings: both partners purified

B1: peptide 23–447 (free, chemically synthesized) (peptide)
peptide: LECLYYLRWKVCDN
modifications: not fully specified (bridges); cysteine pairing not given here
notes: selected from a peptide phage library against IL-23; Two cysteines; source: synthetic peptide (CPC Scientific)
IL-23-HIS
  % inhibition of IL-23 binding to immobilised IL-23R (peptide at 30 μM): 78.7%
IL-23-AVI [1]
  IC50: 24 µM
IL-23-AVI [2]
  IC50: 6.7 µM
IL-23-AVI [3]
  Kd: ~27.5 µM
  koff: ~1.33 s⁻¹
  kon: ~48300 M⁻¹ s⁻¹

B2: peptide 23–441 (free, chemically synthesized) (peptide)
peptide: QKITQCVYIIWTYPCLLNDV
notes: as for B1
IL-23-HIS
  % inhibition of IL-23 binding to immobilised IL-23R (peptide at 30 μM): 100%
IL-23-AVI [1]
  IC50: 5.7 µM
IL-23-AVI [2]
  IC50: 2.5 µM
IL-23-AVI [3]
  Kd: 0.911 µM
  koff: 0.174 s⁻¹
  kon: 190000 M⁻¹ s⁻¹

B3: wild-type IL-23 displayed on yeast, Q9NPF7;P29460 W137A (protein)
chain 1: T1 sequence (looked up) 1 with W137A
chain 2: T1 sequence (looked up) 2
[4]
  ratio to parent: 0.1

B4: wild-type IL-23 displayed on yeast, Q9NPF7;P29460 L141A (protein)
chain 1: T1 sequence (looked up) 1 with L141A
chain 2: T1 sequence (looked up) 2
[4]
  ratio to parent: 0.1

B5: peptide 23–437 (free, chemically synthesized) (peptide)
peptide: FTKEIDSWWLSLMSS
notes: selected from a peptide phage library against IL-23; No cysteines, 15 residues; source: synthetic peptide (CPC Scientific)
IL-23-HIS
  % inhibition of IL-23 binding to immobilised IL-23R (peptide at 30 μM): 57.6%
IL-23-AVI [1]
  IC50: 7 µM
IL-23-AVI [2]
  IC50: 1.4 µM
IL-23-AVI [3]
  Kd: 10.5 µM
  koff: 1.86 s⁻¹
  kon: 178000 M⁻¹ s⁻¹

B6: IL-23R-FLAG-HIS (receptor)
chain: GITNINCSGHIWVEPATIFKMGMNISIYCQAAIKNCQPRKLHFYKNGIKERFQITRINKTTARLWYKNFLEPHASMYCTAECPKHFQETLICGKDISSGYPPDIPDEVTCVIYEYSGNMTCTWNAGKLTYIDTKYVVHVKSLETEEEQQYLTSSYINISTDSLQGGKKYLVWVQAANALGMEESKQLQIHLDDIVIPSAAVISRAETINATVPKTIIYWDSQTTIEKVSCEMRYKATTNQTWNVKEFDTNFTYVQQSEFYLEPNIKYVFQVRCQETGKRYWQPWSSLFFHKTPETVPQVTSKAFQHDTWNSGLTVASISTGHLTSDNRGDIG
modifications: Soluble monomeric ectodomain, FLAG and His tags left out. Limits are not printed in the main text (constructs are in S1 Table of the supplement), so the mature extracellular domain from UniProt …
IL-23-AVI [5]
  Kd: 0.00892 µM
  koff: 0.00151 s⁻¹
  kon: 170000 M⁻¹ s⁻¹
